Data from patent US20260274928A1 (VIR BIOTECHNOLOGY, published 2026).
Changes are numbered by the printed parent chain. Read-outs that look alike come from different tables or passages of the source.

B1: S2K146 Fab (Fab, V domains shown)
VH: QVQLVESGGVVVQPGGSLRLSCAASGFTFHDHTMHWVRQAPGKGLEWVSLITWNGGTIHYSDSVKGRFTISRDNSKNSLYLQMNSLRTEDTALYYCAKDLGRGGWYLPSDAWGQGTLVTVSS
VL: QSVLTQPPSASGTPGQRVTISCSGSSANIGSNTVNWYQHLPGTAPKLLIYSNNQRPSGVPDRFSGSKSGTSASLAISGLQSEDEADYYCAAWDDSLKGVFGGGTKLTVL
B2: S3L17 (antibody, V domains shown)
VH: EVQLVESGGGLVQPGGSLRLSCAASEIIVSSNYMNWVRQAPGKGLEWVSVIYAGGSTFYADSVRGRFTISRDNSKNTLYLQMNSLRPDDTAIYYCARDLGPWGMDVWGQGTTVTVSS
VL: DIQMTQSPSSLSASVGDRVAITCRASHGINNDLAWYQQKPGKVPKLLIYAASTLQSGVPSRFSGSGSGTDFTLTISSLQPEDVATYYCQHYSSDPRFTFGPGTKVDIK
B3: S2V29-v37.2 (antibody, V domains shown)
VH: EVQLVESGGSVVQPGRALRLSCAASGITFSSFGMYWVRQAPGKGLEWLGYIAYDGSDTYYADSVKGRFTISRDNSKNTLYLQMNSLRIEDTAVYYCAKDYYPLLSYYYGLDVWGQGTTVTVSS
VL: QSVLTQPRSVSGSPGQSVTISCTGTSSDVGAYNYVSWYQQHPGKAPKFMIYDVDQRPSGVPDRFSGSKSGNTASLIISGLQAEDEADYYCSSYAGSYIWVFGGGTQLTVL
B4: S2V29-v1.2 (antibody, V domains shown)
VH: B3 VH with Y50V, D57N
VL: B3 VL
B5: S2V29-v1.1 (antibody, V domains shown)
VH: B3 VH with Y50V, D57N
VL: B3 VL with S91C
B6: S3I2 (antibody, V domains shown)
VH: EVQLVETGGGLIQPGGSLTLSCAASGLVVSYNYMTWVRQAPGKGLEWLSVIYAGGSTFYADSVKGRFTVSRDNSNNTLYLQMNNLRAEDTAVYFCARWGQVRFTSEEAYYKYGLDVWGQGTTVTVSS
VL: DIQLTQSPSFLSASVGDRVTITCRASQGISNYLAWYQQRPGKAPKLLIFTASTLQSGVSSRFSGSGSGTEFTLTISSLQPEDLATYYCQQLNSNLQGTFGQGTRVEIK

Assays:
[1] = target: T1, SARS-CoV-2 Wuhan-Hu-1 RBD (SARS-CoV-2 Wuhan-Hu-1, UniProt P0DTC2 328-531); experiment: BLI, Fab on immobilized Wuhan-Hu-1 RBD (FIG. 25)
T1 construct: range 328-531

[2] = target: SARS-CoV-2 mouse/rabbit Fc-tagged RBD (SARS-CoV-2, UniProt P0DTC2 319-541)
[3] = target: T1, SARS-CoV-2 Wuhan-Hu-1 RBD; experiment: RBD binding affinity (SPR, see Example 5)
SARS-CoV S glycoprotein [4] = target: T2, SARS-CoV S glycoprotein (SARS-CoV, UniProt P59594 14-1255); experiment: cell-based or functional assay
SARS-CoV S glycoprotein [5] = target: T2, SARS-CoV S glycoprotein; experiment: cell-based or functional assay; remark: listed apart in the source
[6] = target: SARS-CoV-2 CH.1.1 S glycoprotein (SARS-CoV-2 CH.1.1); experiment: cell-based or functional assay
SARS-CoV S glycoprotein [7] = target: T2, SARS-CoV S glycoprotein; experiment: cell-based or functional assay; remark: listed apart in the source

| Binder | IC50 (read off the curve) [2] | Kd [3] | IC50 (SARS-CoV S glycoprotein [5]) | IC50 [6] | further results |
| --- | --- | --- | --- | --- | --- |
| B1 |  |  |  |  | binding result [1]: binds |
| B2 | ~20 ng/mL | 0.07 nM |  |  |  |
| B3 |  | 0.16 nM | 6 ng·mL | 8.9 ng/mL | fold improvement in neutralization (SARS-CoV S glycoprotein [4]): 100 fold; FC vs v1.2 (SARS-CoV S glycoprotein [5]): 116 fold; FC vs S2V29-v1.2 [6]: 1.3 fold; FC IC50 par/IC50 Var (SARS-CoV S glycoprotein [7]): 21.7 fold; IC50 (SARS-CoV S glycoprotein [7]): 7.7 ng/mL |
| B4 |  | < 0.02 nM | 689 ng·mL | 11.2 ng/mL |  |
| B5 | ~20 ng/mL |  |  |  |  |
| B6 | ~30 ng/mL |  |  |  |  |
